Experimental findings from paper PMC2905062 are described below.

This assay concerns the target Axl receptor tyrosine kinase, wildtype (human). Nature of the assay: co-IP.

Consider “endogenous growth factor receptor-bound protein 2 (Grb2) of COS7 cells (natural protein)”, for which the fold Grb2 co-IP'ed with Axl, rhGas6 stimulation against no stimulation was 2 fold.
